From PMC7219890 (2020)

T1: Mical-1 (Homo sapiens, UniProt Q8TDZ2)
T1 chain: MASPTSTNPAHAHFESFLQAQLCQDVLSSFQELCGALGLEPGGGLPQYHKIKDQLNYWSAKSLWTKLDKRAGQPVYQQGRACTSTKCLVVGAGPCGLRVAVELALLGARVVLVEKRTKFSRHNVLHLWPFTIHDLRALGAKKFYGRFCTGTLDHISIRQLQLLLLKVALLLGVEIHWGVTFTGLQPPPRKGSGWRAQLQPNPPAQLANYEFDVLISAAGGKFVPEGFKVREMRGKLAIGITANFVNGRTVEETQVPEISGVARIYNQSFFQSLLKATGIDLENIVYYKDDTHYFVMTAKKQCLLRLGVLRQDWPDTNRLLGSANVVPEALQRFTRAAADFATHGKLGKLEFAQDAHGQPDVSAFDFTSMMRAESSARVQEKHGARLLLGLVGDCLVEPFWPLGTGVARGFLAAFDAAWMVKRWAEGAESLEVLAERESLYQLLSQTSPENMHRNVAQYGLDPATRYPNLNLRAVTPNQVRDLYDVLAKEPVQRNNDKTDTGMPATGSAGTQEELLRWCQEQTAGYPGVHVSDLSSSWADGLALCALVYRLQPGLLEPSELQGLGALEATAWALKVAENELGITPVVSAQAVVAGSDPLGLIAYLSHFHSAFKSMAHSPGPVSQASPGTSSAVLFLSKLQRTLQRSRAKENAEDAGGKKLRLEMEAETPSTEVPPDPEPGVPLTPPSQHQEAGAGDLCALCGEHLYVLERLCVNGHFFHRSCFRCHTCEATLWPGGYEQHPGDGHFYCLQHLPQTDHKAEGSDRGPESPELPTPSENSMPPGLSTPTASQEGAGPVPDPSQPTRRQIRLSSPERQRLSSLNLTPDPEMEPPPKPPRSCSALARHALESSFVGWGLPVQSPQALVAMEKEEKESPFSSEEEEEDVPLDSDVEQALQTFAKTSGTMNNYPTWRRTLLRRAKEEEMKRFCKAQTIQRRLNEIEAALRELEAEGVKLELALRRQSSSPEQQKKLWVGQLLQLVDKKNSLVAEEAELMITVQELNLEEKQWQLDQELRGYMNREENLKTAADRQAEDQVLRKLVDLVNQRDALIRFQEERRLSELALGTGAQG


Molecular target: T1, Mical-1
Test: ITC

Kd [nM] | Binder
923 | Rab8A 6-176 (protein, GppNHp-bound, C-terminal His6 tag on Rab8A) DYLFKLLLIGDSGVGKTCVLFRFSEDAFNSTFISTIGIDFKIRTIELDGKRIKLQIWDTAGQERFRTITTAYYRGAMGIMLVYDITNEKSFDNIRNWIRNIEEHASADVEKMILGNKCDVNDKRQVSKERGEKLALDYGIKFMETSAKANINVENAFFTLARDIKAKMDKK
913 | Rab8A 6-176 (protein, phosphoSer111 Rab8A, GppNHp-bound, C-terminal His6 tag on Rab8A) DYLFKLLLIGDSGVGKTCVLFRFSEDAFNSTFISTIGIDFKIRTIELDGKRIKLQIWDTAGQERFRTITTAYYRGAMGIMLVYDITNEKSFDNIRNWIRNIEEHASADVEKMILGNKCDVNDKRQVSKERGEKLALDYGIKFMETSAKANINVENAFFTLARDIKAKMDKK
